From patent US5824529

Columns and labels:
[1] = test system: PshAI restriction endonuclease (recombinant, pPshAIR1, NEB#984) (Plesiomonas shigelloides); experiment: cleavage_in_vitro; conditions: crude extract, NEBuffer 2, 30 C, 30 min
[2] = test system: PshAI restriction endonuclease (native) (Plesiomonas shigelloides); experiment: cleavage_in_vitro; conditions: total activity in Mono Q peak, assayed on lambda DNA

Substance lambda DNA has an activity (units/g cells) [1] of 1e+07 and an activity [2] of 250000 units.
